Results: paper PMC10804987

Target: PRRSV-2 nucleocapsid (N) protein with Myc tag
Experiment: ELISA
Conditions: mutated N-His as coating antigen; N-Myc added; parent: est. 0.97; read off a plot

Row | Substance | response [OD450nm]
1 | PRRSV-2 nucleocapsid (N) protein with His tag Q109A | 0.7
2 | PRRSV-2 nucleocapsid (N) protein with His tag S105A; T108A; Q109A | 0.2
3 | PRRSV-2 nucleocapsid (N) protein with His tag S105A | 0.28
4 | PRRSV-2 nucleocapsid (N) protein with His tag T108A | 1
